# Assay results taken from patent US20230038638A1, “COMPLEMENT FACTOR I-RELATED COMPOSITIONS AND METHODS” (published 2023).
# Changes are numbered by the printed parent chain.
# Assays:
# [1] = biological target: T1, C3b (human, UniProt P01024)
# [2] = biological target: T1, C3b; remark: listed apart in the source
# [3] = biological target: soluble human C3b (human) (UniProt P01024)
# [4] = biological target: T2, human C4b (human) (UniProt P0C0L4)
# T2 sequence: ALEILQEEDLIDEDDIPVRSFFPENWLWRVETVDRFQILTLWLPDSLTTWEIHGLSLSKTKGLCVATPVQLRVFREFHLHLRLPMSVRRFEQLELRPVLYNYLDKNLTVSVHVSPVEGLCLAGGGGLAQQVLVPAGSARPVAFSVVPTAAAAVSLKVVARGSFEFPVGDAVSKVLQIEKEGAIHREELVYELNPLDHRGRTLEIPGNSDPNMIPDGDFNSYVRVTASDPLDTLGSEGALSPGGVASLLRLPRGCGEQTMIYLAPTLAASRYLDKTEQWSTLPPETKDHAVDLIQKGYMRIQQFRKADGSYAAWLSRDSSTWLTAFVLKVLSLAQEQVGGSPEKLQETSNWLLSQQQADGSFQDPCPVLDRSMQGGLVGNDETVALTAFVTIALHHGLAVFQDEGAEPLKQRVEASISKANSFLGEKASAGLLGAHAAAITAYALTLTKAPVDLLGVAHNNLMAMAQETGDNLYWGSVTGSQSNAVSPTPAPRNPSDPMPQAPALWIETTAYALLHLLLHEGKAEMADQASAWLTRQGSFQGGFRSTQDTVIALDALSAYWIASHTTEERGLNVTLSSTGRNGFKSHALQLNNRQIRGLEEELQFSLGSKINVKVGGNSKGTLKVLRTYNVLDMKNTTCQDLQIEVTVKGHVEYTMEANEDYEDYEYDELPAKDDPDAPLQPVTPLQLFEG
# [5] = biological target: T3, human C4b (human) (UniProt P0C0L5)
# T3 sequence: T2 sequence with A151T, D317G, P364L, C365S, L368I, D369H, N420S, V451A, L454R, S530A
# [6] = biological target: T2, human C4b (human); remark: listed apart in the source
# [7] = biological target: soluble human C3b (human) (UniProt P01024); remark: listed apart in the source
# [8] = biological target: T4, C4b (human, UniProt P0C0L4)
# T4 sequence: T2 sequence
# [9] = biological target: T3, human C4b (human); remark: listed apart in the source
Substance,"C3b cleavage, % Activity [1] [%]","C3b cleavage rate, kmut/kwt [2]",iC3b Screen Ref Fold (fold vs CFI-HSA wild type) [3],C4b Screen Ref Fold (fold vs CFI-HSA wild type) [5],iC3b EC50 [7] [nM],other results
CFI-HSA variant 456-… (SEQ ID NO: 9)-465 --> … (SEQ ID NO: 10) (human trypsin autolysis loop swap) (enzyme),18,0,,,,
CFI-HSA variant 514-MDANNVT (SEQ ID NO: 13)-520 → NG (hTrypsin 200-loop swap) (enzyme),11,,,,,
CFI-HSA variant D26A (enzyme),94,,0.34,,,
CFI-HSA variant D425K (enzyme),105,1,1.34,0.42,,C4b Screen Ref Fold (fold of CFI-HSA wild type) [4]: 2.86; iC3b Screen Ref Fold (fold of CFI-HSA wild type) [3]: 0.11
CFI-HSA variant E38A (enzyme),79,,0.43,0.09,,
CFI-HSA variant E38A + D425R (enzyme),,1,,,,
CFI-HSA variant E457G (enzyme),,3,1.58,5.37,11.1,C4c EC50 (nM) [6]: 138 nM
CFI-HSA variant E457G + E461Q + R462K + F464Y (mouse CFI autolysis loop swap) (enzyme),,2,,,,
CFI-HSA variant E457G-E461Q-F464Y (enzyme),106,,,,,
CFI-HSA variant E457G; E461Q; N531G with hCR1; CCP15; CCP16; CCP17 C-terminal fusion (enzyme),,,,,,"C4c No Cofactor EC50 (C4b cleavage, C4c ELISA) [8]: 77.6 nM"
CFI-HSA variant E457G; N531G; P535G with hCR1; CCP15; CCP16; CCP17 C-terminal fusion (enzyme),,,,,,"C4c No Cofactor EC50 (C4b cleavage, C4c ELISA) [8]: 44.8 nM"
CFI-HSA variant E457G; P535G with hCR1; CCP15; CCP16; CCP17 C-terminal fusion (enzyme),,,,,,"C4c No Cofactor EC50 (C4b cleavage, C4c ELISA) [8]: 35.9 nM"
CFI-HSA variant E461Q (enzyme),,2,1.94,5.47,12,C4c EC50 (nM) [6]: 121 nM
CFI-HSA variant F29A (enzyme),16,,0.05,0.17,,
CFI-HSA variant K14A (enzyme),93,,0.73,0.3,,C4c EC50 (nM) [6]: 401 nM
CFI-HSA variant K326A + R327A (enzyme),58,0,,,,
CFI-HSA variant L307G (enzyme),91,1,0.79,2.85,39.2,C4c EC50 (nM) [6]: 316 nM
CFI-HSA variant M220A + K221Q (enzyme),92,,,,,
CFI-HSA variant N531A (enzyme),,1,1.21,0.31,24.3,C4c EC50 (nM) [6]: 278 nM
CFI-HSA variant N531G (enzyme),,1,2.1,6.26,8.3,C4c EC50 (nM) [6]: 58.4 nM
CFI-HSA variant N531G with hCR1; CCP15; CCP16; CCP17 C-terminal fusion (enzyme),,,,,,"C4c No Cofactor EC50 (C4b cleavage, C4c ELISA) [8]: 76.2 nM"
CFI-HSA variant N531G; E461Q; T377G (enzyme),,,,,4.9,C4b Screen Ref Fold (fold of CFI-HSA wild type) [4]: 4.1; iC3b Screen Ref Fold (fold of CFI-HSA wild type) [3]: 2.28; C4c EC50 [9]: 5 nM

Substance,"C3b cleavage, % Activity [1] [%]","C3b cleavage rate, kmut/kwt [2]",iC3b Screen Ref Fold (fold vs CFI-HSA wild type) [3],C4b Screen Ref Fold (fold vs CFI-HSA wild type) [5],iC3b EC50 [7] [nM],other results
CFI-HSA variant N531G; N422K; T377G (enzyme),,,,,3.3,C4b Screen Ref Fold (fold of CFI-HSA wild type) [4]: 3.88; iC3b Screen Ref Fold (fold of CFI-HSA wild type) [3]: 2.74; C4c EC50 [9]: 6.8 nM
CFI-HSA variant P535A (enzyme),,1,1.01,1.86,,
CFI-HSA variant R35A (enzyme),47,,0.12,0.06,,
CFI-HSA variant R557A (enzyme),21,0,0.04,1.74,> 500,C4b Screen Ref Fold (fold relative to CFI-HSA wild type) [5]: 1.72; iC3b Screen Ref Fold (fold relative to CFI-HSA wild type) [3]: -0.01; C4c EC50 (nM) [6]: 327 nM
CFI-HSA variant R557A; N531D; Y403F; K504Y (enzyme),,,,,156,C4b Screen Ref Fold (fold of CFI-HSA wild type) [4]: 3.81; iC3b Screen Ref Fold (fold of CFI-HSA wild type) [3]: 0.11; C4c EC50 [9]: 38.6 nM
CFI-HSA variant R557A; N531G; Y403F; K504Y; E457G; E461Q (enzyme),,,,,38.2,C4b Screen Ref Fold (fold of CFI-HSA wild type) [4]: 4.28; iC3b Screen Ref Fold (fold of CFI-HSA wild type) [3]: 0.36; C4c EC50 [9]: 22.4 nM
CFI-HSA variant R557A; N531M (enzyme),,,,,288,C4b Screen Ref Fold (fold of CFI-HSA wild type) [4]: 2.91; iC3b Screen Ref Fold (fold of CFI-HSA wild type) [3]: 0.09; C4c EC50 [9]: 78.7 nM
CFI-HSA variant R557A; N531M; Y403F; K504Y (enzyme),,,,,334,C4b Screen Ref Fold (fold of CFI-HSA wild type) [4]: 3.28; iC3b Screen Ref Fold (fold of CFI-HSA wild type) [3]: 0.03; C4c EC50 [9]: 76.3 nM
CFI-HSA variant R557A; N531M; Y403F; K504Y; E457G; E461Q (enzyme),,,,,79.4,C4b Screen Ref Fold (fold of CFI-HSA wild type) [4]: 3.97; iC3b Screen Ref Fold (fold of CFI-HSA wild type) [3]: 0.21; C4c EC50 [9]: 26.3 nM
CFI-HSA variant S250A (enzyme),82,,0.38,0.07,,
CFI-HSA variant S250A + D425R (enzyme),,1,,,,
CFI-HSA variant S250L (enzyme),-4,,0.09,,,
CFI-HSA variant S507A (active site mutant) (enzyme),0,,,,,
CFI-HSA variant T377G; N422K (enzyme),,,,,4.1,C4b Screen Ref Fold (fold of CFI-HSA wild type) [4]: 2.25; iC3b Screen Ref Fold (fold of CFI-HSA wild type) [3]: 2.55; C4c EC50 [9]: 37.4 nM
CFI-HSA variant T377G; N422K; E457G; E461Q; N531G (enzyme),,,,,3.7,C4b Screen Ref Fold (fold of CFI-HSA wild type) [4]: 3.92; iC3b Screen Ref Fold (fold of CFI-HSA wild type) [3]: 0.78; C4c EC50 [9]: 3.5 nM
CFI-HSA variant Y20A (enzyme),7,,0.05,0.14,,
CFI-HSA variant Y20F (enzyme),80,,0.67,0.27,,
CFI-HSA variant Y20F + D425R (enzyme),,1,,,,
CFI-HSA variant Y408L (enzyme),104,1,1.4,1.46,21.3,C4c EC50 (nM) [6]: > 1000 nM
CFI-HSA variant Δ(K1-P305) (HSA-SPD) (enzyme),35,,,,,
CFI-HSA variant ΔC-term (Δ558-PFISQYNV (SEQ ID NO: 14)-565) (enzyme),7,,0.03,0.11,,
